Residue numbers refer to the chain shown, from its start.
T1: 人皮肤成纤维细胞(HDF)上的IL-17RA (UniProt Q96F46 33-866, limits assumed)
T1 sequence (looked up): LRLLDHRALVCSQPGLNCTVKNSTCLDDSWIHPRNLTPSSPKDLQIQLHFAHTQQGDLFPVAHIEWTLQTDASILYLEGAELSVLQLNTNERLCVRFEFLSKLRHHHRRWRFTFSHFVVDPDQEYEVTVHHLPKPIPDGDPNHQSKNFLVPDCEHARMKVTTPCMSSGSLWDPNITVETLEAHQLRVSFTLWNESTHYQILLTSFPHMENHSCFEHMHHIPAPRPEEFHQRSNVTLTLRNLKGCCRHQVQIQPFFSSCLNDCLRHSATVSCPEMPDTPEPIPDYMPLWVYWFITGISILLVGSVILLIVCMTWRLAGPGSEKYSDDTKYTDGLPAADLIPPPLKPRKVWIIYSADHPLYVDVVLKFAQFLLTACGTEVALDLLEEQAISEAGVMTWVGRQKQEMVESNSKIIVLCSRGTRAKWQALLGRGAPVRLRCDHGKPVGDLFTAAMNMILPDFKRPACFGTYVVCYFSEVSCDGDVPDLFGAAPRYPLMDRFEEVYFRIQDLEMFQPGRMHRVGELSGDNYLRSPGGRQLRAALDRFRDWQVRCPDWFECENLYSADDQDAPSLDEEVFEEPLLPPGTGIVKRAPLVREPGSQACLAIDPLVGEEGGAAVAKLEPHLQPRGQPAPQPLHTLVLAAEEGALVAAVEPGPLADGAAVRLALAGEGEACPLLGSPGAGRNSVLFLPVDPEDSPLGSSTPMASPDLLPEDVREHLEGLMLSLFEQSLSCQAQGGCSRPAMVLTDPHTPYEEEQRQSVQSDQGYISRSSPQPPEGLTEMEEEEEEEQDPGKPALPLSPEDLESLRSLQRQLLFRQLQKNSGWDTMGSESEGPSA

B1: 上市产品Brodalumab的全抗体 (antibody, V domains shown)
VH: QVQLVQSGAEVKKPGASVKVSCKASGYTFTRYGISWVRQAPGQGLEWMGWISTYSGNTNYAQKLQGRVTMTTDTSTSTAYMELRSLRSDDTAVYYCARRQLYFDYWGQGTLVTVSS
VL: EIVMTQSPATLSVSPGERATLSCRASQSVSSNLAWFQQKPGQAPRPLIYDASTRATGVPARFSGSGSGTDFTLTISSLQSEDFAVYYCQQYDNWPLTFGGGTKVEIK
B2: mAb-4全抗体 (antibody, human IgG1, kappa, V domains shown)
VH: B1 VH with T28A, F29Y, T30S, R31N, Q62K, L64F, Q65I, Q100V, Y102R, F103L
VL: DIQMTQSPSSLSASVGDRVTITCRASQDIDSSLNWYQQKPGKAPKLLIYAASNRESGVPSRFSGSGSGTDFTLTISSLQPEDFATYYCQQWANMPGTFGQGTKVEIKR
B3: mAb-6全抗体 (antibody, human IgG1, kappa, V domains shown)
VH: B1 VH with T28S, Q62K, K63Q, L64F, Q65K, Q100V, Y102R, F103L
VL: EIVMTQSPATLSVSPGERATLSCRASQDISISLGWFQQKPGQAPRPLIYGWNTRATGVPARFSGSGSGTDFTLTISSLQSEDFAVYYCQQYSDPFLTFGGGTKVEIKR
B4: mAb-9全抗体 (antibody, human IgG1, kappa, V domains shown)
VH: B1 VH with F29W, R31S, Q62K, L64F, Q65L, Q100V, Y102R, F103L
VL: DIQMTQSPSSLSASVGDRVTITCRASQSVHTGLNWYQQKPGKAPKLLIYGASNLQSGVPSRFSGSGSGTDFTLTISSLQPEDFATYYCQQFEHNPLTFGQGIKVEIKR
B5: mAb-5全抗体 (antibody, human IgG1, kappa, V domains shown)
VH: B1 VH with Y27F, T28A, Q62D, K63Q, L64F, Q65I, Q100V, Y102R, F103L
VL: B2 VL
B6: mAb-10全抗体 (antibody, human IgG1, kappa, V domains shown)
VH: B1 VH with T28S, T30S, R31S, Q62K, L64F, Q65K, Q100V, Y102R, F103L
VL: B4 VL
B7: mAb-8全抗体 (antibody, human IgG1, kappa, V domains shown)
VH: B1 VH with T28G, T30A, R31S, Y32R, Q62K, L64F, Q65E, Q100V, Y102R, F103L
VL: B4 VL
B8: mAb-3全抗体 (antibody, human IgG1, kappa, V domains shown)
VH: B1 VH with T28A, T30S, Y32F, Q62K, K63H, Q65L, Q100F, Y102K
VL: B2 VL
B9: mAb-11全抗体 (antibody, human IgG1, kappa, V domains shown)
VH: B1 VH with T28A, F29W, Q62K, L64F, Q65K, Q100V, Y102R, F103L
VL: B4 VL
B10: mAb-7全抗体 (antibody, human IgG1, kappa, V domains shown)
VH: B1 VH with R31S, Q62K, K63N, Q100V, Y102R, F103L
VL: B3 VL
B11: mAb-1全抗体 (antibody, human IgG1, kappa, V domains shown)
VH: B1 VH with T28S, F29Y, T30S, R31N, A61S, Q62K, Q65K, Q100V, Y102R, F103L
VL: B2 VL
B12: mAb-2全抗体 (antibody, human IgG1, kappa, V domains shown)
VH: B1 VH with T28A, F29W, Q62K, L64F, Q65K, Q100V, Y102R, F103L
VL: B2 VL

target: T1, 人皮肤成纤维细胞(HDF)上的IL-17RA; assay: cell-based or functional assay

Binder	抑制HDF细胞产生IL-6 IC50(ng/ml) [ng/mL]
B1	117
B2	35.8
B3	33.4
B4	24.8
B5	22.9
B6	36.4
B7	13.5
B8	33.4
B9	60.8
B10	29.7
B11	28.4
B12	22.7

— patent publication CN111840217A (BEIJING EASTERN BIOTECH CO LTD, dated 2020)
